The results in this text go back to patent US7026443.

For the first assay, the target named is HLA-A*0301 (human). As to the kind of experiment: competition with 125I-labeled standard peptide for purified HLA, gel filtration.
Regarding MMIEPPKLR (modifications not checked) [HPV16 E1 peptide … (position 305, 9 amino acids)], the relative binding ratio (IC50 of standard peptide / IC50 of test peptide) turned out to be 0.001. For the molecule NSNASAFLK (modifications not checked) [HPV16 E1 peptide … (position 386, 9 amino acids)], the relative binding ratio (IC50 of standard peptide / IC50 of test peptide) came out at 0.0005. For the molecule RLKAICIEK (modifications not checked) [HPV16 E1 peptide … (position 109, 9 amino acids)], the relative binding ratio (IC50 of standard peptide / IC50 of test peptide) was found to be 0.084. For the molecule FITFLGALK (modifications not checked) [HPV18 E1 position 460 peptide …], the binding affinity ratio (IC50 of standard peptide / IC50 of test peptide) was found to be 0.032. For QMSMSQWIK (modifications not checked) [HPV16 E1 peptide … (position 419, 9 amino acids)], the relative binding ratio (IC50 of standard peptide / IC50 of test peptide) amounted to 0.0023.

As to ALLRYKCGK (modifications not checked) [HPV18 E1 position 284 peptide …], the binding affinity ratio (IC50 of standard peptide / IC50 of test peptide) turned out to be 0.09. Turning to SLFGMSLMK (modifications not checked) [HPV16 E1 peptide … (position 484, 9 amino acids)], the relative binding ratio (IC50 of standard peptide / IC50 of test peptide) stood at 0.72. Turning to SMSQWIKYR (modifications not checked) [HPV16 E1 peptide … (position 421, 9 amino acids)], the relative binding ratio (IC50 of standard peptide / IC50 of test peptide) was 0.69. Take TAAALYWYK (modifications not checked) [HPV16 E1 peptide … (position 315, 9 amino acids)]: the relative binding ratio (IC50 of standard peptide / IC50 of test peptide) was 0.78.

On to SVICFVNSK (modifications not checked) [HPV16 E1 peptide … (position 497, 9 amino acids)], for which the relative binding ratio (IC50 of standard peptide / IC50 of test peptide) came to 0.0005. In the case of TAQEAKQHR (modifications not checked) [HPV16 E1 peptide … (position 72, 9 amino acids)], the relative binding ratio (IC50 of standard peptide / IC50 of test peptide) is 0.0005. For LVRPFKSNK (modifications not checked) [HPV16 E1 peptide … (position 222, 9 amino acids)], the relative binding ratio (IC50 of standard peptide / IC50 of test peptide) is 0.07.

Turning to LVSMDVKHR (modifications not checked) [HPV16 E1 peptide … (position 544, 9 amino acids)], the relative binding ratio (IC50 of standard peptide / IC50 of test peptide) was determined as 0.0005.

Consider MSFLTALKR (modifications not checked) [HPV16 E1 peptide … (position 454, 9 amino acids)], for which the relative binding ratio (IC50 of standard peptide / IC50 of test peptide) came out at 0.087.

In the case of GLSFTDLVR (modifications not checked) [HPV18 E1 position 223 peptide …], the binding affinity ratio (IC50 of standard peptide / IC50 of test peptide) was determined as 0.0009. In the case of CATMCKHYR (modifications not checked) [HPV18 E1 position 412 peptide …], the binding affinity ratio (IC50 of standard peptide / IC50 of test peptide) was found to be 0.0012.

Another assay concerns the target HLA-A*1101 (human). Described as above.
For the molecule MMIEPPKLR (modifications not checked) [HPV16 E1 peptide … (position 305, 9 amino acids)], the relative binding ratio (IC50 of standard peptide / IC50 of test peptide) turned out to be 0.0086.

On to NSNASAFLK (modifications not checked) [HPV16 E1 peptide … (position 386, 9 amino acids)], for which the relative binding ratio (IC50 of standard peptide / IC50 of test peptide) was 0.011. As to RLKAICIEK (modifications not checked) [HPV16 E1 peptide … (position 109, 9 amino acids)], the relative binding ratio (IC50 of standard peptide / IC50 of test peptide) came out at 0.051.

ATMCKHYRR (modifications not checked) [HPV18 E1 position 413 peptide …]: the binding affinity ratio (IC50 of standard peptide / IC50 of test peptide) is 0.28. Take FITFLGALK (modifications not checked) [HPV18 E1 position 460 peptide …]: the binding affinity ratio (IC50 of standard peptide / IC50 of test peptide) turned out to be 0.037. With QMSMSQWIK (modifications not checked) [HPV16 E1 peptide … (position 419, 9 amino acids)], the relative binding ratio (IC50 of standard peptide / IC50 of test peptide) was found to be 0.026.

For ALLRYKCGK (modifications not checked) [HPV18 E1 position 284 peptide …], the binding affinity ratio (IC50 of standard peptide / IC50 of test peptide) is 0.14. Turning to SLFGMSLMK (modifications not checked) [HPV16 E1 peptide … (position 484, 9 amino acids)], the relative binding ratio (IC50 of standard peptide / IC50 of test peptide) came out at 7.1. SMSQWIKYR (modifications not checked) [HPV16 E1 peptide … (position 421, 9 amino acids)]: the relative binding ratio (IC50 of standard peptide / IC50 of test peptide) came out at 0.028. With SVICFVNSK (modifications not checked) [HPV16 E1 peptide … (position 497, 9 amino acids)], the relative binding ratio (IC50 of standard peptide / IC50 of test peptide) was found to be 0.0002. As for TAQEAKQHR (modifications not checked) [HPV16 E1 peptide … (position 72, 9 amino acids)], the relative binding ratio (IC50 of standard peptide / IC50 of test peptide) came to 0.0025. On the same count and under the same terms, the value for LVRPFKSNK (modifications not checked) [HPV16 E1 peptide … (position 222, 9 amino acids)] was 1.8. With LVSMDVKHR (modifications not checked) [HPV16 E1 peptide … (position 544, 9 amino acids)], the relative binding ratio (IC50 of standard peptide / IC50 of test peptide) was found to be 0.0089. Turning to MSFLTALKR (modifications not checked) [HPV16 E1 peptide … (position 454, 9 amino acids)], the relative binding ratio (IC50 of standard peptide / IC50 of test peptide) is 0.098. As to GLSFTDLVR (modifications not checked) [HPV18 E1 position 223 peptide …], the binding affinity ratio (IC50 of standard peptide / IC50 of test peptide) came to 0.0025. For the molecule CATMCKHYR (modifications not checked) [HPV18 E1 position 412 peptide …], the binding affinity ratio (IC50 of standard peptide / IC50 of test peptide) was determined as 0.011.

A further assay concerns the target HLA-A*0301 (human).
Assay: not given
For the molecule NSNASAFLK (modifications not checked) [HPV16 E1 peptide … (position 386, 9 amino acids)], the binding affinity ratio (IC50 of the standard peptide / IC50 of the test peptide) is 0.0005. Regarding QMSMSQWIK (modifications not checked) [HPV16 E1 peptide … (position 419, 9 amino acids)], the binding affinity ratio (IC50 of the standard peptide / IC50 of the test peptide) came to 0.0023.

For another assay, the target named is HLA-A*1101 (human).
Assay: not given
Turning to GLSFTDLVR (modifications not checked) [HPV18 E1 position 223 peptide …], the binding affinity ratio (IC50 of standard peptide / IC50 of test peptide) came out at 0.0025.

Another assay concerns the target HLA-A*1101 (human). The experiment in a line: competition with 125I-labelled standard peptide for purified HLA-A*1101, gel filtration.
For the molecule LTNILNVLK (modifications not checked) [HPV16 E1 191 …], the binding affinity ratio (IC50 of standard peptide / IC50 of test peptide) (ratio to standard peptide) was determined as 0.42. On to LVSMDVKHR (modifications not checked) [HPV16 E1 544 …], for which the binding affinity ratio (IC50 of standard peptide / IC50 of test peptide) (ratio to standard peptide) worked out at 0.0089.

Consider LSLHEDEDK (modifications not checked) [HPV16 E1 620 …], for which the binding affinity ratio (IC50 of standard peptide / IC50 of test peptide) (ratio to standard peptide) is 0.0002. For the molecule KLRHLNEKR (modifications not checked) [HPV18 E6 117 …], the binding affinity ratio (IC50 of standard peptide / IC50 of test peptide) stood at 0.0005.

The target of a further assay is HLA-A*0201 (human). As to the kind of experiment: competition with 125I-labelled standard peptide for purified HLA-A*0201, gel filtration.
Take GTGCNGWFYV (modifications not checked) [HPV16 E1 12 peptide …]: the relative binding ratio (IC50 of standard peptide / IC50 of test peptide) is 0.0006. For the molecule GLTPSIADSI (modifications not checked) [HPV16 E1 242 peptide …], the relative binding ratio (IC50 of standard peptide / IC50 of test peptide) stood at 0.0002. On to FLQGSVICFV (modifications not checked) [HPV16 E1 493 peptide …], for which the relative binding ratio (IC50 of standard peptide / IC50 of test peptide) is 0.23. Regarding DLFVVYRDSI (modifications not checked) [HPV18 E6 51 …], the binding affinity ratio (IC50 of the standard peptide / IC50 of the test peptide) stood at 0.0001. With PLNPAEKL (modifications not checked) [HPV18 E6 peptide PLNPAEKL (position 111)], the relative binding ratio (IC50 of standard peptide / IC50 of test peptide) worked out at 0.0001. With SVYGDTLEKL (modifications not checked) [HPV18 E6 peptide … (position 84)], the relative binding ratio (IC50 of standard peptide / IC50 of test peptide) is 0.0028.

For the molecule AAFGLTPSI (modifications not checked) [HPV16 E1 … (position 239)], the relative binding ratio (IC50 of standard peptide / IC50 of test peptide) came to 0.0012. With CMCCKCEARI (modifications not checked) [HPV18 E7 peptide … (position 63)], the relative binding ratio (IC50 of standard peptide / IC50 of test peptide) was 0.002. On the same count and under the same terms, in the case of SLQDIEITCV (modifications not checked) [HPV18 E6 peptide … (position 24)] it was 0.025.

As to TVLELTEV (modifications not checked) [HPV18 E6 peptide TVLELTEV (position 37)], the relative binding ratio (IC50 of standard peptide / IC50 of test peptide) worked out at 0.001.

Consider GTGCNGWFYV (modifications not checked) [HPV18 E1 peptide … (position 11, 10 amino acids)], for which the binding affinity ratio (IC50 of the standard peptide / IC50 of the test peptide) turned out to be 0.0006. On the same count and under the same terms, the value for FIHFIQGAVI (modifications not checked) [HPV18 E1 peptide … (position 497, 10 amino acids)] was 0.0057. For the molecule CTFELSQMV (modifications not checked) [HPV16 E1 … (position 353)], the relative binding ratio (IC50 of standard peptide / IC50 of test peptide) was 0.0029.

Regarding DLRAFQQL (modifications not checked) [HPV18 E7 peptide DLRAFQQL (position 82)], the relative binding ratio (IC50 of standard peptide / IC50 of test peptide) came out at 0.0001.

As for ELRHYSDSV (modifications not checked) [HPV18 E6 peptide … (position 77)], the relative binding ratio (IC50 of standard peptide / IC50 of test peptide) worked out at 0.0003. As to NTSLQDIEIT (modifications not checked) [HPV18 E6 peptide … (position 22)], the relative binding ratio (IC50 of standard peptide / IC50 of test peptide) came out at 0.0001. For DLRAFQQLFL (modifications not checked) [HPV18 E7 peptide … (position 82)], the relative binding ratio (IC50 of standard peptide / IC50 of test peptide) was 0.001. Turning to CMCCKCEA (modifications not checked) [HPV18 E7 peptide CMCCKCEA (position 63)], the relative binding ratio (IC50 of standard peptide / IC50 of test peptide) was found to be 0.0005. Regarding FIQGAVISFV (modifications not checked) [HPV18 E1 peptide … (position 500, 10 amino acids)], the binding affinity ratio (IC50 of the standard peptide / IC50 of the test peptide) amounted to 0.046. Turning to KLTNTGLYNLL (modifications not checked), the relative binding ratio (IC50 of standard peptide / IC50 of test peptide) came out at 0.0043.

Consider KLTNTGLYNL (modifications not checked), for which the relative binding ratio (IC50 of standard peptide / IC50 of test peptide) worked out at 0.0048. For the molecule RLQRRRETQV (modifications not checked) [HPV18 E6 peptide … (position 149)], the relative binding ratio (IC50 of standard peptide / IC50 of test peptide) stood at 0.0001.

On to IAAFGLTPSI (modifications not checked) [HPV16 E1 238 peptide …], for which the relative binding ratio (IC50 of standard peptide / IC50 of test peptide) stood at 0.0002. Consider GAANTGKSL (modifications not checked) [HPV16 E1 477 peptide …], for which the relative binding ratio (IC50 of standard peptide / IC50 of test peptide) came to 0.0003.

Consider ELNTSLQDI (modifications not checked) [HPV18 E6 20 …], for which the binding affinity ratio (IC50 of the standard peptide / IC50 of the test peptide) was determined as 0.0001. Take EIDGVNHQHL (modifications not checked) [HPV18 E7 peptide … (position 40)]: the relative binding ratio (IC50 of standard peptide / IC50 of test peptide) is 0.0001. With DTLEKLTNT (modifications not checked) [HPV18 E6 88 …], the binding affinity ratio (IC50 of the standard peptide / IC50 of the test peptide) was found to be 0.0001.

Another assay concerns the target HLA-A*0301 (human). As to the kind of experiment: competition with 125I-labelled standard peptide for purified HLA-A*0301, gel filtration. (In gel filtration, larger molecules generally elute earlier.)
As to LTNILNVLK (modifications not checked) [HPV16 E1 191 …], the binding affinity ratio (IC50 of standard peptide / IC50 of test peptide) amounted to 0.0086. As for LVSMDVKHR (modifications not checked) [HPV16 E1 544 …], the binding affinity ratio (IC50 of standard peptide / IC50 of test peptide) came out at 0.0005. The same measure, in the same setting: in the case of LSLHEDEDK (modifications not checked) [HPV16 E1 620 …] it was 0.0005.
